In test [1] the target is trimeric Spike, full P.1 variant (SARS-CoV-2) (UniProt P0DTC2). The test can be described thus: Luminex bead-based binding assay.
Test [2] addresses trimeric Spike K417N/E484K/N501Y (SARS-CoV-2) (UniProt P0DTC2). Nature of the test: Luminex bead-based binding assay.

On to REGN10933 (antibody), for which the fold reduced binding affinity in test [1] was 195 fold; in test [2], 60 fold.

Source of the values: article PMC8452523.
